What was measured:
human MAL (human) [1] = biological target: human MAL (human) (UniProt P58753); test: P3 phage display panning on plate-immobilised MAL, after round 4, NGS
human MyD88 (human) [2] = biological target: human MyD88 (human) (UniProt Q99836); test: P3 phage display panning on plate-immobilised MyD88, after round 4, NGS
human MyD88 (human) [3] = biological target: human MyD88 (human) (UniProt Q99836); test: P8 phage display panning on plate-immobilised MyD88, after round 4, NGS
human MAL (human) [4] = biological target: human MAL (human) (UniProt P58753); test: P8 phage display panning on plate-immobilised MAL, after round 4, NGS

Chain of UniProt P58753 (P58753 79-221 limits assumed): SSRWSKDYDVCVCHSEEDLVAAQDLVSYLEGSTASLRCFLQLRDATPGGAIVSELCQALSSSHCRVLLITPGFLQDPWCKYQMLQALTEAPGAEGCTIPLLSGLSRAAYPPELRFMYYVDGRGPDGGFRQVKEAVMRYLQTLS
Chain of UniProt Q99836 (Q99836 155-296 limits assumed): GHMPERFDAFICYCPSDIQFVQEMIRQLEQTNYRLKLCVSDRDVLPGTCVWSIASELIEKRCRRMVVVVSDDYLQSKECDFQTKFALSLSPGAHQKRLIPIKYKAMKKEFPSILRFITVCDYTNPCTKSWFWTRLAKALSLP

Row | NGS count (human MAL (human) [1]) | Population (human MAL (human) [1]) | NGS count (human MyD88 (human) [2]) | Population (human MyD88 (human) [2]) | NGS count (human MyD88 (human) [3]) | Population (human MyD88 (human) [3]) | Binder | other results
1 | 30000 count | 11.3% | 79500 count | 23.1% |  |  | SSFREGLWRLLELSKK | 
2 | 1840 count | 0.69% | 8820 count | 2.57% |  |  | NELVHVWSSKANSLVG | 
3 |  |  |  |  | 1840 count | 0.71% | SPQEQDGFWVRLIEAL | 
4 |  |  | 2450 count | 0.71% |  |  | RKGDLISDELLIAIEE | 
5 |  |  | 2400 count | 0.7% |  |  | HLLKEFDKKLITAFKD | 
6 |  |  |  |  | 4490 count | 1.73% | DPQDLEWFYERLFSQM | 
7 |  |  |  |  | 2330 count | 0.9% | YASSSWALDELLRILY | 
8 |  |  | 2540 count | 0.74% |  |  | YYLDPSHLRKQSGEFG | 
9 |  |  |  |  |  |  | WFYERLVSLILRDTKV | NGS count (human MAL (human) [4]): 79000 count; Population (human MAL (human) [4]): 24.4%
10 | 2350 count | 0.88% | 16800 count | 4.9% |  |  | EWIREQLRPALKERLP | 
11 | 1760 count | 0.66% | 2580 count | 0.75% |  |  | GFLYQAFAREGFKIFM | 
12 |  |  | 4790 count | 1.39% |  |  | AVDKETDKIQTPLKNA | 
13 | 2680 count | 1.01% | 2890 count | 0.84% |  |  | YNFISHLYDALHRNRI | 
14 | 3760 count | 1.41% | 5190 count | 1.8% |  |  | KEVEGWRDALTKVASL | 
15 |  |  |  |  | 3430 count | 1.32% | YAASPWWFDELVKIVG | 
16 |  |  |  |  | 1490 count | 0.57% | MFGGDTFHDFLDLISM | 
17 | 5130 count | 1.93% | 8310 count | 2.42% |  |  | LKWGDPYFWSKLRYAM | 
18 |  |  |  |  | 1540 count | 0.59% | DWVWEHFFPMEEKDQT | 
19 |  |  | 5490 count | 1.89% |  |  | SENYATSPWALDELVL | 
20 |  |  | 3290 count | 0.96% |  |  | FLSYRALEKRFGPIGQ | 

Row | NGS count (human MAL (human) [1]) | Population (human MAL (human) [1]) | NGS count (human MyD88 (human) [2]) | Population (human MyD88 (human) [2]) | NGS count (human MyD88 (human) [3]) | Population (human MyD88 (human) [3]) | Binder | other results
21 |  |  |  |  | 4070 count | 1.57% | YLRADDSWFWEKLLYA | 
22 |  |  |  |  | 1960 count | 0.76% | GLSWGPYEWWMGLYDA | 
23 |  |  | 17600 count | 5.12% |  |  | YTALTNSGFHTFRDND | 
24 |  |  | 2250 count | 0.66% |  |  | PSEVRKQTGSLAKAFA | 
25 |  |  |  |  | 3060 count | 1.18% | IDDDHLTYLVRLLLSR | 
26 |  |  | 4870 count | 1.42% |  |  | SELRVVDDGSVSPLEM | 
27 | 2280 count | 0.86% | 26700 count | 7.78% |  |  | DHHLDLPRGKAIKPEILG | 
28 | 3680 count | 1.38% | 1980 count | 0.58% |  |  | ESILNQLRRSSQSIAN | 
29 |  |  | 2500 count | 0.73% |  |  | PEKDNGGENAFINNIV | 
30 | 43800 count | 16.4% | 13400 count | 3.91% |  |  | YAFTGHLHRYLVQRGV | 
31 |  |  |  |  | 2030 count | 0.78% | VANILGYHWIDWEYFV | 
32 | 3260 count | 1.22% | 8540 count | 2.49% |  |  | KNLFNELVSKNIRTFM | 
33 | 5180 count | 2.32% | 16800 count | 4.91% |  |  | LKVESWRQALEKAGKL | 
34 |  |  | 4230 count | 1.23% |  |  | NGHESEIIKEIVDTIV | 
35 |  |  |  |  | 4110 count | 1.58% | DYASSTWWLRELLQIA | 
36 |  |  | 2080 count | 0.6% |  |  | TSHLHHALRLNKIETF | 
37 |  |  |  |  | 3420 count | 1.32% | HWIDWEYFVGIEDHIK | 
38 |  |  |  |  | 1460 count | 0.56% | LEANDSLFWDRLLYSL | 
39 | 1670 count | 0.63% | 17500 count | 5.08% |  |  | LVAHEISKKMKIFATI | 

From patent EP4613859A1, “TLR SIGNALING INHIBITORY PEPTIDE AND COMPOSITION INCLUDING SAME FOR PREVENTION OR TREATMENT OF INFLAMMATORY DISEASES” (Korea Institute of Science and Technology, priority 2022, dated 2025)
